Here are results for one molecule from patent US20250262210A1 (TRUSTEES OF COLUMBIA UNIVERSITY IN THE CITY OF NEW YORK, published 2025).

Experiment [1] has as its target VPS13A (human, UniProt Q96RL7 1-3174, limits assumed). The experiment in a line: IP/MS, LZTR1 R810W-FLAG, U87. The procedure, abridged: (§1)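 Gel slices were reduced with 5 mM DTT, alkylated with 11 mM IAA and digested overnight at 37° C. with trypsin. Peptides were analysed on an Orbitrap Fusion Tribrid by LC-MS/MS.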
In experiment [2] the target is T1, SLC4A2 (human, UniProt P04920 1-1241, limits assumed).
T1 sequence (looked up): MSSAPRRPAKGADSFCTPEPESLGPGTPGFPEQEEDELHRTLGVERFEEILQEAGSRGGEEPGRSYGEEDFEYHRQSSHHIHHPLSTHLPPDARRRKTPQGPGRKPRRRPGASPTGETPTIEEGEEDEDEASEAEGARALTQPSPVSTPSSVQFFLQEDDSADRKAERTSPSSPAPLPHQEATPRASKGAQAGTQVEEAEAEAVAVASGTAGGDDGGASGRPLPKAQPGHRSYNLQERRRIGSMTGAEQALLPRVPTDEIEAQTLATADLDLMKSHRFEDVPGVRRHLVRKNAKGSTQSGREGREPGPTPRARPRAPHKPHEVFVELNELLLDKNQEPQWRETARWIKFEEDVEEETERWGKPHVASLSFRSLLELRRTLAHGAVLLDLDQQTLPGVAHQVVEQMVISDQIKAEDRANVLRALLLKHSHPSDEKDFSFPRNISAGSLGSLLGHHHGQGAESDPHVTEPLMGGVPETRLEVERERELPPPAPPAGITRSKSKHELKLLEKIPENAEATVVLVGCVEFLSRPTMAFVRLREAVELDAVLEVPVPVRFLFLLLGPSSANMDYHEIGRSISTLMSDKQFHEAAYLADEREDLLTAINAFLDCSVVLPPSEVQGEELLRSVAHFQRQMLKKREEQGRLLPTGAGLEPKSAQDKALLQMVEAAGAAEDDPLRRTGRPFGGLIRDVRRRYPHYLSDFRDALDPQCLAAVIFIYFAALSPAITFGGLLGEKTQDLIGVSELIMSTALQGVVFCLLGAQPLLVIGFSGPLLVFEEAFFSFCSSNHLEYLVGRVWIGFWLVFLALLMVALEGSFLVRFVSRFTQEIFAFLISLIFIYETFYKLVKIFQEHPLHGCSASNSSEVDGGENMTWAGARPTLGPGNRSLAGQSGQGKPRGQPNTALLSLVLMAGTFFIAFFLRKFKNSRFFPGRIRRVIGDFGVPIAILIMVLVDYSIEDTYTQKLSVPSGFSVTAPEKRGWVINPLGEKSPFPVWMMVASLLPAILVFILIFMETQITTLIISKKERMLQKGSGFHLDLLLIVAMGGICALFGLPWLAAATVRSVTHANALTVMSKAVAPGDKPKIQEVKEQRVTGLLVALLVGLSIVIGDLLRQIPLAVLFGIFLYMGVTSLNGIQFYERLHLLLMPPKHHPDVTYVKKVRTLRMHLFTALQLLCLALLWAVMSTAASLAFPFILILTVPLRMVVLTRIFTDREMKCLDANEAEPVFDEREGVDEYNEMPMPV
Nature of the experiment: IP/MS, LZTR1 R810W-FLAG, U87. The gist of the method: as §1

Chain of VPS13A (Q96RL7 whole entry, the tested form may be a part): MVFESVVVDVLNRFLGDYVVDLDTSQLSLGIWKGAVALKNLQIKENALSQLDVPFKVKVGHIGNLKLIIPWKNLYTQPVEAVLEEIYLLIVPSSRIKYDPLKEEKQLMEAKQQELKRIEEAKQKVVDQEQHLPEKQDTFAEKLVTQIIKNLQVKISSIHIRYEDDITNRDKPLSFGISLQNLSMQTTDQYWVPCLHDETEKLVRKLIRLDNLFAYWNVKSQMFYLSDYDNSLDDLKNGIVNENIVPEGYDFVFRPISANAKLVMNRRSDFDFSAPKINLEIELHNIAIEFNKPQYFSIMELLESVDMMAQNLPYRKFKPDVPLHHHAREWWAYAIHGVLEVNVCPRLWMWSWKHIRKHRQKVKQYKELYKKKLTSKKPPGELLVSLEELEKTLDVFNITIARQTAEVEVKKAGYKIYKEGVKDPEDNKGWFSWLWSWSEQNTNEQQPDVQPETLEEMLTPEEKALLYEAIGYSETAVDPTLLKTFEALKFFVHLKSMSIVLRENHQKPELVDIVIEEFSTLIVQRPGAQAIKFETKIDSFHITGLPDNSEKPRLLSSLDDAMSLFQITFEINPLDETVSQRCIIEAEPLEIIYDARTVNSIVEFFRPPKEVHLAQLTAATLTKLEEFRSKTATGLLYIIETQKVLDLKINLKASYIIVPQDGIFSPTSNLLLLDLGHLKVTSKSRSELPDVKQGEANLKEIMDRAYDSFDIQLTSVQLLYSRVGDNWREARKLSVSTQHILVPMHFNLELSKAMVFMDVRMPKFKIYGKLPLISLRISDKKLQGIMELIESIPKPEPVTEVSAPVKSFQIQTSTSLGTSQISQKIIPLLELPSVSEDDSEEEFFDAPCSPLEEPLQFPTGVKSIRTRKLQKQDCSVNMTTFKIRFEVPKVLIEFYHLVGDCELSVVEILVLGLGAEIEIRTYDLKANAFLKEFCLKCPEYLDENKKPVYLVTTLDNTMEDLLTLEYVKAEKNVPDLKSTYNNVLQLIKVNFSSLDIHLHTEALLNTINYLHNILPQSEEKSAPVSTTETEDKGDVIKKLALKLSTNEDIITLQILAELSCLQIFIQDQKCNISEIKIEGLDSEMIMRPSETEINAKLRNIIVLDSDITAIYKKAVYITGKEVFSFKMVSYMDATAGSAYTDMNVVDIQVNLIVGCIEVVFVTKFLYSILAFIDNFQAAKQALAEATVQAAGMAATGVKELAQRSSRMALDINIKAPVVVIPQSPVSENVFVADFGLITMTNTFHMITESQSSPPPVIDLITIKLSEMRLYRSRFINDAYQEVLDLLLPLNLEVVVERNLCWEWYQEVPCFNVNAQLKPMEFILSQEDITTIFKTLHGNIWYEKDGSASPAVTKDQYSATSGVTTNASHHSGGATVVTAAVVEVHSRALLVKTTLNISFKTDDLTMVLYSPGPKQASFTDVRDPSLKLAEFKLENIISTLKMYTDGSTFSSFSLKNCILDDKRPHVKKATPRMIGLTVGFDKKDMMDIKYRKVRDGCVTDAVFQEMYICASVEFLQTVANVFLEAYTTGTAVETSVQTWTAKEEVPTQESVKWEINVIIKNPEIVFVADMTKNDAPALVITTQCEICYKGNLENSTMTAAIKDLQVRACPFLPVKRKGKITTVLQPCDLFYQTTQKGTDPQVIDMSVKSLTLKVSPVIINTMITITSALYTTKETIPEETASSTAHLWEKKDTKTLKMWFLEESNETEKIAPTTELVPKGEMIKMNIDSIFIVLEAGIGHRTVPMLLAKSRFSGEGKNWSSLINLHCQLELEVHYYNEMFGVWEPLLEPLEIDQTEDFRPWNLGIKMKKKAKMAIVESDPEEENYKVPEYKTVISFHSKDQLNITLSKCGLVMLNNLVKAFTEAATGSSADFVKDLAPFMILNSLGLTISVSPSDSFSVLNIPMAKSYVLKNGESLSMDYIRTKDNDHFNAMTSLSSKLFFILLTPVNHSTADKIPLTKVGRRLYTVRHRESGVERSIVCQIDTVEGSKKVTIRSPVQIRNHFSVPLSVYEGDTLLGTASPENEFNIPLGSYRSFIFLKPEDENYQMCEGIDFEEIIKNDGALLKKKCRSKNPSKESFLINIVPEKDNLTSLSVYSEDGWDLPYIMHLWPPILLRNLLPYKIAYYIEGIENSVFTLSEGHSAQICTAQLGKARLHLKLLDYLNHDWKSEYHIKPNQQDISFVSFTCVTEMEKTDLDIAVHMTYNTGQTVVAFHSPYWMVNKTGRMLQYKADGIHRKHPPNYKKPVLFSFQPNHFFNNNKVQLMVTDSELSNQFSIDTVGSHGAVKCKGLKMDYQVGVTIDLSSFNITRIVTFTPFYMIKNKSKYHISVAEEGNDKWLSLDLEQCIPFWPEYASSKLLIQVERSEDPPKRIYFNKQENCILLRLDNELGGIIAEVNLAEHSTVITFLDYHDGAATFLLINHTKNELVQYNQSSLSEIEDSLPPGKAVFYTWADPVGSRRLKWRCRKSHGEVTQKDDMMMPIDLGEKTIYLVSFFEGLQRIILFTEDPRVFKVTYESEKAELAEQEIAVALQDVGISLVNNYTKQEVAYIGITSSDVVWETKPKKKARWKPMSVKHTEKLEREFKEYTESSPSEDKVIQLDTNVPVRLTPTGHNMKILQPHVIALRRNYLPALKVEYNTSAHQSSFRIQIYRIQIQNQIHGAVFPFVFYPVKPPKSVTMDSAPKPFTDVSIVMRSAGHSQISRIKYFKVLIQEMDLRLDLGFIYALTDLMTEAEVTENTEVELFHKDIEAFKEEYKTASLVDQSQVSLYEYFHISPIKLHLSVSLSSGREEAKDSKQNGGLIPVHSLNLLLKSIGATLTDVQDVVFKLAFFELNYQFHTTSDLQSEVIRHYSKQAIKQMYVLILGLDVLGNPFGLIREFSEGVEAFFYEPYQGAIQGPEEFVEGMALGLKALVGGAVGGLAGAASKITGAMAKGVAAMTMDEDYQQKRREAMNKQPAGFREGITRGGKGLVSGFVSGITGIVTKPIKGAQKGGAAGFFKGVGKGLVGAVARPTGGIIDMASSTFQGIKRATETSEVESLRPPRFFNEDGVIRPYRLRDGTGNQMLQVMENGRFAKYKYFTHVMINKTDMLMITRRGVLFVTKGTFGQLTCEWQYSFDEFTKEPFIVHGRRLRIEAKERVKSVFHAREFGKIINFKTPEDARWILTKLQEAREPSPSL

B1: LZTR1 R810W-FLAG (other, human, UniProt Q8N653 1-840, looked up)
chain: MAGPGSTGGQIGAAALAGGARSKVAPSVDFDHSCSDSVEYLTLNFGPFETVHRWRRLPPCDEFVGARRSKHTVVAYKDAIYVFGGDNGKTMLNDLLRFDVKDCSWCRAFTTGTPPAPRYHHSAVVYGSSMFVFGGYTGDIYSNSNLKNKNDLFEYKFATGQWTEWKIEGRLPVARSAHGATVYSDKLWIFAGYDGNARLNDMWTIGLQDRELTCWEEVAQSGEIPPSCCNFPVAVCRDKMFVFSGQSGAKITNNLFQFEFKDKTWTRIPTEHLLRGSPPPPQRRYGHTMVAFDRHLYVFGGAADNTLPNELHCYDVDFQTWEVVQPSSDSEVGGAEVPERACASEEVPTLTYEERVGFKKSRDVFGLDFGTTSAKQPTQPASELPSGRLFHAAAVISDAMYIFGGTVDNNIRSGEMYRFQFSCYPKCTLHEDYGRLWESRQFCDVEFVLGEKEECVQGHVAIVTARSRWLRRKITQARERLAQKLEQEAAPVPREAPGVAAGGARPPLLHVAIREAEARPFEVLMQFLYTDKIKYPRKGHVEDVLLIMDVYKLALSFQLCRLEQLCRQYIEASVDLQNVLVVCESAARLQLSQLKEHCLNFVVKESHFNQVIMMKEFERLSSPLIVEIVRRKQQPPPRTPLDQPVDIGTSLIQDMKAYLEGAGAEFCDITLLLDGHPRPAHKAILAARSSYFEAMFRSFMPEDGQVNISIGEMVPSRQAFESMLRYIYYGEVNMPPEDSLYLFAAPYYYGFYNNRLQAYCKQNLEMNVTVQNVLQILEAADKTQALDMKRHCLHIIVHQFTKVSKLPTLWSLSQQLLLDIIDSLASHISDKQCAELGADI
notes: Stably expressed in U87 cells by lentivirus; also called LZTR1-FLAG-R810W; LZTR1 RW; not shown: FLAG tag
On to B1, for which the binding result in experiment [1] and in experiment [2] was “binds” throughout.
